Reference: patent publication US20220146535A1

Experiments:
[1] = target: recombinant hTau-pT217 protein having the amino acid sequence of SEQ ID NO: 1 (human) (UniProt P10636); assay: BLI (Octet Red96), antibody captured on Protein A biosensor, hTau-pT217 in solution, KD=koff/kon; column head prints (nM), paragraph 52 says molar units; not normalized for avidity
[2] = target: recombinant hTau-pT217 protein having the amino acid sequence of SEQ ID NO: 1 (human) (UniProt P10636); assay: BLI (Octet Red96), antibody captured on Protein A biosensor, hTau-pT217 0.4115-300 nM in solution, 1:1 fit, 25 C
[3] = target: T1, N-terminal biotin labeled peptide of SEQ ID NO. 26 without phosphorylated threonine at residue 7 (human); assay: BLI (Octet Red96), biotinylated peptide on streptavidin biosensor, IgG at 5 ug/mL, 300 s association and 300 s dissociation
T1 sequence (peptide, N-terminal biotin; threonine at residue 7 not phosphorylated): RTPSLPTPPTR

[4] = target: N-terminal biotin labeled peptide of SEQ ID NO. 26 with phosphorylated threonine at residue 7 (human); assay: as above
[5] = target: recombinant hTau-pT217 protein having the amino acid sequence of SEQ ID NO: 1 (human) (UniProt P10636); assay: BLI (Octet Red96), antibody captured on Protein A biosensor, hTau-pT217 in solution, 1:1 fit, 25 C; column head prints (M^-1s^-1 units), paragraph 52 says s^-1

Sequence of UniProt P10636 (P10636 other isoform, or with tags, fused parts or gaps limits assumed): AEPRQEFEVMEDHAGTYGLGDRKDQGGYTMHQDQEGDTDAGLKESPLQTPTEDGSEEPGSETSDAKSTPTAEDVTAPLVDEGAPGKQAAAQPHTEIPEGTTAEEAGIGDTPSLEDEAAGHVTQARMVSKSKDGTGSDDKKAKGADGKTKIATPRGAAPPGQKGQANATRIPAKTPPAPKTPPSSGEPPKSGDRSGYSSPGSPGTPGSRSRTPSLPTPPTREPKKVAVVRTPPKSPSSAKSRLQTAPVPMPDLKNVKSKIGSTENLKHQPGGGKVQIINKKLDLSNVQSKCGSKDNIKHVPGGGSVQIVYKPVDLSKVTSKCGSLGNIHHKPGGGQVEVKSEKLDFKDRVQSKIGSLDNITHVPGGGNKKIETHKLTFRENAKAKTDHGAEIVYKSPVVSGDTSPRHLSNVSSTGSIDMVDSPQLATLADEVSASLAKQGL

Kd [1]: 0.695 nM
kon [2]: 339000 M⁻¹ s⁻¹
binding signal at the end of dissociation [3]: -0.0024 nm
binding signal at the end of dissociation [4]: 4.42 nm
koff [5]: 0.000236 s⁻¹
B1: mAb A, exemplified rabbit anti-hTau-pT217 antibody (antibody)
heavy: QSVEESGGRLVTPGTPLTLTCTVSGLSPSWYGVHWVRQAPGKGLEWIGVLRAGSHTYYAGWAKGRFAISKTSTTVALKITSPTTEDTAIYFCGSVGRGIWGPGTLVTVSLGQPKAPSVFPLAPCCGDTPSSTVTLGCLVKGYLPEPVTVTWNSGTLTNGVRTFPSVRQSSGLYSLSSVVSVTSSSQPVTCNVAHPATNTKVDKTVAPSTCSKPTCPPPELLGGPSVFIFPPKPKDTLMISRTPEVTCVVVDVSQDDPEVQFTWYINNEQVRTARPPLREQQFNSTIRVVSTLPIAHQDWLRGKEFKCKVHNKALPAPIEKTISKARGQPLEPKVYTMGPPREELSSRSVSLTCMINGFYPSDISVEWEKNGKAEDNYKTTPAVLDSDGSYFLYSKLSVPTSEWQRGDVFTCSVMHEALHNHYTQKSISRSPGK
light: AQVLTQTASPVSATVGGTVTINCQASLAVYNNNYLAWYQQKPGQPPKRLIYLASSLSSGVSSHFKGSGSGTQFTLTISDVQADDAATYFCQGSYDCTIADCVAFGGGTEVVVKGDPVAPTVLIFPPAADQVATGTVTIVCVANKYFPDVTVTWEVDGTTQTTGIENSKTPQNSADNTYNLSSTLTLTSTQYNSHKEYTCKVTQGTTSVVQSFNRGDC
